Our source for the koff values is patent US20180291110A1 (Hoffmann-La Roche, published 2018).

Numbering of substitutions follows the chain as printed.

In this assay the target is T1, human transferrin receptor (recombinant, for surface plasmon resonance) (human, UniProt P02786 89-760).
T1 construct: also called huTfR; human transferrin receptor-biotinylated
Put plainly: SPR 25C.

T1 sequence (P02786 89-760 limits assumed): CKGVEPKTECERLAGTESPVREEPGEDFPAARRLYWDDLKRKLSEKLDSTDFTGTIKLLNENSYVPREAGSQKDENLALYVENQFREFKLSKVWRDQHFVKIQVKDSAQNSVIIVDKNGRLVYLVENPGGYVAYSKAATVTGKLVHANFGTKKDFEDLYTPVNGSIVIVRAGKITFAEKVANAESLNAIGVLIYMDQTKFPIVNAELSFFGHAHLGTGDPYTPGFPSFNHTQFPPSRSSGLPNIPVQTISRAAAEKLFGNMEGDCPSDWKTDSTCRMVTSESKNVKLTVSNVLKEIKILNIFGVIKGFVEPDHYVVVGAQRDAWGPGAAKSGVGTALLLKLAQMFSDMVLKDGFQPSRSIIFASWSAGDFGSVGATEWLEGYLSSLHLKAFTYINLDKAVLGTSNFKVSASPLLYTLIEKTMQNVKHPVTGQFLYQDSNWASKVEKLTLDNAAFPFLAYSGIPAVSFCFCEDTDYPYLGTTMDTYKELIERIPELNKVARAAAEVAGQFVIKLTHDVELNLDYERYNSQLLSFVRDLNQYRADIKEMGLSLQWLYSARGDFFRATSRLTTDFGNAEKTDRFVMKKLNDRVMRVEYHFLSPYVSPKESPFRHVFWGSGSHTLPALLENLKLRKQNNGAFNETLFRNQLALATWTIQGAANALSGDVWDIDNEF

B1: 2/99 VH5/VL4 (antibody, V domains shown)
VH: QSMEETGGGLIQPGGSLRLSCAASGFSLSSYAMSWVRQAPGKGLEWVGYIWSGGSTDYADSVKGRFTISRDNSKNTLYLQMNSLRAEDTAVYYCARRYGTSYPDYGDANGFDPWGPGTLVTVSS
VL: AYQMTQSPSSLSASVGDRVTITCRASQSISSYLSWYQQKPGKAPKLLIYRASTLASGVPSRFSGSGSGTDFTLTISSLQPEDFATYYCQQSYSSSNVDNTFGGGTKVEIK
For the molecule B1, the koff stood at 0.00238 s⁻¹.

B2: 2/99 VH1/VL5 (antibody, V domains shown)
VH: B1 VH with Q1V, S2Q, M3L, E4V, P116Q
VL: B1 VL with A1D, Y2I
Consider B2, for which the koff is 0.00271 s⁻¹.

B3: 2/99 VH7/VL4 (antibody, V domains shown)
VH: B1 VH with S2Q, M3L, E4V, V47I, D60S, S61W, V62A, P116Q
VL: B1 VL
Turning to B3, the koff was 0.00125 s⁻¹.

B4: 2/99 VH12/VL5 (antibody, V domains shown)
VH: QVQLQESGPGLVKPSETLSLTCTVSGFSLSSYAMSWIRQPPGKGLEWIGYIWSGGSTDYNPSLKSRVTISVDTSKNQFSLKLSSVTAADTAVYYCARRYGTSYPDYGDANGFDPWGQGTLVTVSS
VL: B1 VL with A1D, Y2I
Take B4: the koff was found to be 0.00582 s⁻¹.

B5: 2/99 VH6/VL5 (antibody, V domains shown)
VH: B1 VH with S2Q, M3L, E4V, V47I, P116Q
VL: B1 VL with A1D, Y2I
For B5, the koff is 0.00166 s⁻¹.

B6: 2/99 VH11/VL5 (antibody, V domains shown)
VH: B1 VH with S2Q, M3L, E4L, T6S, I11V, P116Q
VL: B1 VL with A1D, Y2I
B6: the koff was determined as 0.00456 s⁻¹.

B7: 2/99 VH9/VL4 (antibody, V domains shown)
VH: B1 VH with S2Q, M3L, E4L, T6S, I11V, S27T, L28F, R96K, P116Q
VL: B1 VL
For the molecule B7, the koff is 0.0027 s⁻¹.

B8: 2/99 VH22/VL5 (antibody, V domains shown)
VH: QSMQESGPGLVKPSQTLSLTCTVSGFSLSSYAMSWVRQHPGKGLEWIGYIWSGGSTDYASWAKSRVTISVDTSKNQVSLKLSSVTAADTAVYYCARRYGTSYPDYGDANGFDPWGQGTLVTVSS
VL: B1 VL with A1D, Y2I
For the molecule B8, the koff is 0.00141 s⁻¹.

B9: 2/99 VH15/VL4 (antibody, V domains shown)
VH: B8 VH with S2Q, M3L, Q15E, H39P, A59N, S60P, W61S, A62L
VL: B1 VL
For B9, the koff came out at 0.00134 s⁻¹.

B10: 2/99 VH18/VL5 (antibody, V domains shown)
VH: B4 VH with E16Q, P40H, N60A
VL: B1 VL with A1D, Y2I
As to B10, the koff turned out to be 0.00349 s⁻¹.

B11: 2/99 VH16/VL5 (antibody, V domains shown)
VH: B8 VH with S2Q, M3L, Q15E, H39P, A59N, S60P, W61S, A62L, Q116P
VL: B1 VL with A1D, Y2I
In the case of B11, the off-rate constant (koff) was determined as 0.00223 s⁻¹.

B12: 2/99 VH9/VL5 (antibody, V domains shown)
VH: B1 VH with S2Q, M3L, E4L, T6S, I11V, S27T, L28F, R96K, P116Q
VL: B1 VL with A1D, Y2I
Regarding B12, the koff turned out to be 0.0035 s⁻¹.

B13: 2/99 VH18/VL4 (antibody, V domains shown)
VH: B4 VH with E16Q, P40H, N60A
VL: B1 VL
Turning to B13, the koff amounted to 0.00335 s⁻¹.

B14: 2/99 VH8/VL4 (antibody, V domains shown)
VH: QQLVETGGGLIQPGGSLRLSCAASGFSLSSYAMSWVRQAPGKGLEWIGYIWSGGSTDYASWAKGRFTISKTSTTLYLQMNSLRAEDTAVYYCARRYGTSYPDYGDANGFDPWGQGTLVTVSS
VL: B1 VL
As to B14, the koff turned out to be 0.000788 s⁻¹.

B15: 2/99 VH8/VL5 (antibody, V domains shown)
VH: B14 VH
VL: B1 VL with A1D, Y2I
As for B15, the koff came out at 0.00107 s⁻¹.

B16: 2/99 VH11/VL4 (antibody, V domains shown)
VH: B1 VH with S2Q, M3L, E4L, T6S, I11V, P116Q
VL: B1 VL
For the molecule B16, the koff amounted to 0.00388 s⁻¹.

B17: 2/99 VH19/VL5 (antibody, V domains shown)
VH: B8 VH with V36I, S60P, W61S, A62L, V77F
VL: B1 VL with A1D, Y2I
For the molecule B17, the koff was 0.001 s⁻¹.

B18: 2/99 VH2/VL5 (antibody, V domains shown)
VH: EVQLVETGGGLIQPGGSLRLSCAASGFSLSSYAMSWVRQAPGKGLEWVGYIWSGGSTDYADSVKGRFTISRDNSKNTLYLQMNSLRAEDTAVYYCARRYGTSYPDYGDANGFDPWGQGTLVTVSS
VL: B1 VL with A1D, Y2I
In the case of B18, the koff was found to be 0.00262 s⁻¹.

B19: 2/99 VH5/VL5 (antibody, V domains shown)
VH: B1 VH
VL: B1 VL with A1D, Y2I
For B19, the koff stood at 0.00253 s⁻¹.

B20: 2/99 VH20/VL4 (antibody, V domains shown)
VH: B8 VH with V36I, S60P, W61S, A62L
VL: B1 VL
As to B20, the koff turned out to be 0.00436 s⁻¹.

B21: 2/99 VH7/VL5 (antibody, V domains shown)
VH: B1 VH with S2Q, M3L, E4V, V47I, D60S, S61W, V62A, P116Q
VL: B1 VL with A1D, Y2I
Turning to B21, the koff came out at 0.00135 s⁻¹.

B22: 2/99 VH17/VL4 (antibody, V domains shown)
VH: B8 VH with S2Q, M3L, Q15E, H39P, A59N, S60P, W61S, A62L, V70K, Q116P
VL: B1 VL
As for B22, the koff stood at 0.000723 s⁻¹.

B23: 2/99 VH6/VL4 (antibody, V domains shown)
VH: B1 VH with S2Q, M3L, E4V, V47I, P116Q
VL: B1 VL
Consider B23, for which the koff was determined as 0.00187 s⁻¹.

B24: 2/99 VH20/VL5 (antibody, V domains shown)
VH: B8 VH with V36I, S60P, W61S, A62L
VL: B1 VL with A1D, Y2I
Consider B24, for which the koff was 0.00352 s⁻¹.

B25: 2/99 VH21/VL5 (antibody, V domains shown)
VH: B8 VH with V36I
VL: B1 VL with A1D, Y2I
Consider B25, for which the koff turned out to be 0.00137 s⁻¹.

B26: 2/99 VH23-DANG/VL4 (antibody, V domains shown)
VH: QSMQESGPGLVKPSQTLSLTCTVSGFSLSSYAMSWIRQHPGKGLEWIGYIWSGGSTDYASWAKSRVTISKTSTTVSLKLSSVTAADTAVYYCARRYGTSYPDYGDANGFDPWGQGTLVTVSS
VL: B1 VL
In the case of B26, the koff was 0.000761 s⁻¹.

B27: 2/99 VH16/VL4 (antibody, V domains shown)
VH: B8 VH with S2Q, M3L, Q15E, H39P, A59N, S60P, W61S, A62L, Q116P
VL: B1 VL
Take B27: the koff is 0.00127 s⁻¹.

B28: 2/99 VH12/VL4 (antibody, V domains shown)
VH: B4 VH
VL: B1 VL
On to B28, for which the koff came to 0.00311 s⁻¹.

B29: 2/99 VH17/VL5 (antibody, V domains shown)
VH: B8 VH with S2Q, M3L, Q15E, H39P, A59N, S60P, W61S, A62L, V70K, Q116P
VL: B1 VL with A1D, Y2I
For B29, the koff came to 0.00123 s⁻¹.

B30: 2/99 VH22/VL4 (antibody, V domains shown)
VH: B8 VH
VL: B1 VL
For B30, the koff is 0.00118 s⁻¹.

B31: 2/99 VH19/VL4 (antibody, V domains shown)
VH: B8 VH with V36I, S60P, W61S, A62L, V77F
VL: B1 VL
B31: the koff came to 0.001 s⁻¹.

B32: 2/99 VH15/VL5 (antibody, V domains shown)
VH: B8 VH with S2Q, M3L, Q15E, H39P, A59N, S60P, W61S, A62L
VL: B1 VL with A1D, Y2I
Consider B32, for which the koff is 0.00214 s⁻¹.

B33: 2/99 VH21/VL4 (antibody, V domains shown)
VH: B8 VH with V36I
VL: B1 VL
Take B33: the koff was determined as 0.00146 s⁻¹.

B34: 2/99 VH13/VL5 (antibody, V domains shown)
VH: B4 VH with F78V
VL: B1 VL with A1D, Y2I
As for B34, the koff was 0.00218 s⁻¹.

B35: 2/99 VH13/VL4 (antibody, V domains shown)
VH: B4 VH with F78V
VL: B1 VL
For B35, the koff was found to be 0.0013 s⁻¹.

Broadly, the koff is a measure of how fast the partners let go of each other.
